Among the targets are RnPP5 TPR Y80A (rat); RnPP5 TPR R113A (rat); RnPP5 TPR E76A (rat); RnPP5 TPR R117A (rat); RnPP5 TPR E56A (rat); RnPP5 TPR E29A (rat); RnPP5 TPR K40A (rat); RnPP5 TPR R74A (rat); RnPP5 TPR I63A (rat); RnPP5 TPR R101A (rat); RnPP5 TPR K32A (rat).
Assay in all cases: ELISA
(In an ELISA, binding on a coated surface is turned into a signal by an enzyme label.)

Assay [1] has as its target T1, HsPP5 TPR (human protein phosphatase 5 TPR domain, amino acids 1-181) (human, UniProt P53041 1-181).
T1 sequence (looked up): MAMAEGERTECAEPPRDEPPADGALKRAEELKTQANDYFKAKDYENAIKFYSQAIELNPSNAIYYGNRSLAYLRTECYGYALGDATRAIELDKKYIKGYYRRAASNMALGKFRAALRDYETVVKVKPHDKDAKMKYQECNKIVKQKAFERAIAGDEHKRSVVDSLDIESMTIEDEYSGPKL

The target of assay [2] is HsHop TPR2A (amino acids 223-352) (human, UniProt P31948 223-352).
HsHop TPR2A (amino acids 223-352), sequence (P31948 223-352): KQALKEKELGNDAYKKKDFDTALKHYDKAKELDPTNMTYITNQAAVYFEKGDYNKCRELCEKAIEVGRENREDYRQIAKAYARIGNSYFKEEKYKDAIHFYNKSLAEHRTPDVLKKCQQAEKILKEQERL
The target of assay [3] is HsHop TPR1 (amino acids 1-118) (human, UniProt P31948 1-118).
HsHop TPR1 (amino acids 1-118), sequence (P31948 1-118): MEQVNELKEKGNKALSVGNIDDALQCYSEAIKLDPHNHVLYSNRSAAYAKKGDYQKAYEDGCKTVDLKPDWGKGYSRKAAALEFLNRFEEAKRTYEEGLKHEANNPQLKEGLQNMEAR
Assay [4] addresses T2, RnPP5 TPR wild type (rat protein phosphatase 5 TPR domain) (rat).
T2 sequence (P53042 whole entry, looked up): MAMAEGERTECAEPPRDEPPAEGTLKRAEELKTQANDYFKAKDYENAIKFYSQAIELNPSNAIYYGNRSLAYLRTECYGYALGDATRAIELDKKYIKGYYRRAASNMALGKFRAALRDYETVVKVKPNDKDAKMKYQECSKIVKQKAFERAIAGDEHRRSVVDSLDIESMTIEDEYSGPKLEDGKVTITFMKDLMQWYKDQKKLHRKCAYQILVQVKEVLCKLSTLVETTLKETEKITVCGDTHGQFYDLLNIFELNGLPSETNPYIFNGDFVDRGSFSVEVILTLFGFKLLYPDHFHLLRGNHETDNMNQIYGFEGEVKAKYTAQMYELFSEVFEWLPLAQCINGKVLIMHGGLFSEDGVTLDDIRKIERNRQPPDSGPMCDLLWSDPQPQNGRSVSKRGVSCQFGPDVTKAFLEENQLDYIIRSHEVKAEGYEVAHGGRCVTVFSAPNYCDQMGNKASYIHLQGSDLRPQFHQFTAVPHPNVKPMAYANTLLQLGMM

The target in assay [5] is HsHop TPR2B (amino acids 353-477) (human, UniProt P31948 353-477).
HsHop TPR2B (amino acids 353-477), sequence (P31948 353-477): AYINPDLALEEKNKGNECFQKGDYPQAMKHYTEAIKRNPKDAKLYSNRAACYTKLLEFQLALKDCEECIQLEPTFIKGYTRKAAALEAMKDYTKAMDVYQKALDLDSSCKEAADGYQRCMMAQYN

Take “hsp90 C-12 control phage, displayed peptide … (the 12 residues located at the C-terminus of hsp90)”: the A405 (ELISA) (absorbance at 405 nm) is 1.09 in the assay with RnPP5 TPR Y80A (rat); 0.72 in the assay with RnPP5 TPR R113A (rat); 1.12 in the assay with RnPP5 TPR E76A (rat); 1.06 with RnPP5 TPR R117A (rat); 1.08 with RnPP5 TPR E56A (rat); 1.06 in the assay with RnPP5 TPR E29A (rat).
Consider NAHLRLEMNDVD [T7 phage #7 (VD phage with a -4 methionine), displayed peptide NAHLRLEMNDVD], for which the “A405 (ELISA)” value in assay [1] was determined as 0.56 absorbance at 405 nm; in [2], 0.04 absorbance at 405 nm; in assay [3] it was 0.32 absorbance at 405 nm.
For RFQQMNQSWDVD [T7 phage #1 (VD phage #1), displayed peptide …], the A405 (ELISA) (absorbance at 405 nm) was 1.08 with RnPP5 TPR Y80A (rat); 0.84 with RnPP5 TPR R113A (rat); 1.14 in assay [4]; 1.01 in the assay with RnPP5 TPR K40A (rat); 0.75 with RnPP5 TPR R74A (rat); 1 in the assay with RnPP5 TPR R117A (rat). In addition, the A405 (ELISA) (absorbance at 405 nm) in the assay with RnPP5 TPR I63A (rat) amounted to 0.84.
For the molecule RLLSADDDVLFG [LFG phage #1, displayed peptide …], the A405 (ELISA) (absorbance at 405 nm) amounted to 0.66 with RnPP5 TPR R113A (rat); 0.53 in the assay with RnPP5 TPR R101A (rat); 0.8 in the assay with RnPP5 TPR R117A (rat); 0.74 in the assay with RnPP5 TPR K32A (rat); 0.78 in the assay with RnPP5 TPR E56A (rat).
Turning to KHTVADDELLFG [LFG phage #2, displayed peptide …], the A405 (ELISA) (absorbance at 405 nm) with RnPP5 TPR R113A (rat) was found to be 0.74; with RnPP5 TPR R101A (rat) it was 0.54; with RnPP5 TPR R74A (rat) it was 0.75; with RnPP5 TPR R117A (rat), 0.78; with RnPP5 TPR E29A (rat) it was 0.75.
For the molecule GDDDTSRMEEVD, the “A405 (ELISA)” value in [5] worked out at 0.24 absorbance at 405 nm.
